The results in this text go back to paper PMC9712113, “Medin co-aggregates with vascular amyloid-β in Alzheimer’s disease” (Nature, 2022).

The data set concerns the molecule itself. Briefly: Thioflavin T fluorescence seeding assay; 10 µM monomeric Met-Aβ or CT-medin with 0.5 µM sonicated pre-formed seeds of either peptide; 50 mM Tris pH 8, 25 µM ThT, 30 °C.

B1: C-terminal fragment of medin (peptide)
peptide: EVTGIITQGARNFGSVQFVASYK
notes: C-terminal fragment of medin / MFG-E8, identified in tissue extracts by mass spectrometry; also called CT-medin; C-terminal medin fragment; source: synthetic peptide (Intavis Multipep RSi solid phase synthesis, purity >90%)
As to B1, the binding result was “binds”.
